In assay [1] the target is T1, full length human LEPR (amino acids 1-1165 of P48357, Isoform B) on cells (human, UniProt P48357 22-1165).
T1 sequence: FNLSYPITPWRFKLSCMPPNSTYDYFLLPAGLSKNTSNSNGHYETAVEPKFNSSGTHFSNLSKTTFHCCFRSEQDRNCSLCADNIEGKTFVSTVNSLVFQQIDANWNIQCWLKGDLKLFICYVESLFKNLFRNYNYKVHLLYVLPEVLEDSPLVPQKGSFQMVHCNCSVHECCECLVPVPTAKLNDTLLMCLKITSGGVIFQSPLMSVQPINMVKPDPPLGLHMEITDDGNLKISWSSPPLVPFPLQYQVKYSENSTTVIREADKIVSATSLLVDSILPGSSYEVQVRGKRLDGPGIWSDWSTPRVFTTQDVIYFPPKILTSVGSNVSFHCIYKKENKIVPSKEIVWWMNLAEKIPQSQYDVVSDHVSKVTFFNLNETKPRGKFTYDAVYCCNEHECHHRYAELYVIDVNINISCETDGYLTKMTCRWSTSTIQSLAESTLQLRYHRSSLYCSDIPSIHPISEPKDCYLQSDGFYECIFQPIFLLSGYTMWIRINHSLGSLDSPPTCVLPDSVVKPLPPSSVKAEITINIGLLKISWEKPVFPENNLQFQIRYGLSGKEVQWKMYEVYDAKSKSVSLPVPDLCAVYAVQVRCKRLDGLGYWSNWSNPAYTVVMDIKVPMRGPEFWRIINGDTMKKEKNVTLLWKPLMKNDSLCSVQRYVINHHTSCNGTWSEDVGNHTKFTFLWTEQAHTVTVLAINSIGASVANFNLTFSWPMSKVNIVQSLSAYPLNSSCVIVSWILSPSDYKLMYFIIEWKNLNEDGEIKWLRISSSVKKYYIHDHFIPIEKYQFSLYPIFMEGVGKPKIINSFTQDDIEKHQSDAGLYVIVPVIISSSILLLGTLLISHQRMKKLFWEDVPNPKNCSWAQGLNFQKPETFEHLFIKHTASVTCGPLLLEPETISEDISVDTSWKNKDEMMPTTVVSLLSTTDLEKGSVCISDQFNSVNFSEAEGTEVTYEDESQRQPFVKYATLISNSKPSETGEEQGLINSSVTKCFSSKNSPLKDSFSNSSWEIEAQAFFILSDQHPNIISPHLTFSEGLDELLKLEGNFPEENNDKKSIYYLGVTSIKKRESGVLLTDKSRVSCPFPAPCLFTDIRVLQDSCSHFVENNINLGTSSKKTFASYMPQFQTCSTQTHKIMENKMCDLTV
Nature of the assay: cell-based or functional assay.

Assay [2] concerns the target T2, extracellular domain of human LEPR (amino acids 22-839 of P48357, Isoform B) with N-terminal myc-myc tag, … (human, UniProt P48357 22-839, GPI anchor at the C-terminus).
T2 construct: also called HEK293/Mycx2-hLepR(Ecto)-GPI anchored cells
T2 sequence: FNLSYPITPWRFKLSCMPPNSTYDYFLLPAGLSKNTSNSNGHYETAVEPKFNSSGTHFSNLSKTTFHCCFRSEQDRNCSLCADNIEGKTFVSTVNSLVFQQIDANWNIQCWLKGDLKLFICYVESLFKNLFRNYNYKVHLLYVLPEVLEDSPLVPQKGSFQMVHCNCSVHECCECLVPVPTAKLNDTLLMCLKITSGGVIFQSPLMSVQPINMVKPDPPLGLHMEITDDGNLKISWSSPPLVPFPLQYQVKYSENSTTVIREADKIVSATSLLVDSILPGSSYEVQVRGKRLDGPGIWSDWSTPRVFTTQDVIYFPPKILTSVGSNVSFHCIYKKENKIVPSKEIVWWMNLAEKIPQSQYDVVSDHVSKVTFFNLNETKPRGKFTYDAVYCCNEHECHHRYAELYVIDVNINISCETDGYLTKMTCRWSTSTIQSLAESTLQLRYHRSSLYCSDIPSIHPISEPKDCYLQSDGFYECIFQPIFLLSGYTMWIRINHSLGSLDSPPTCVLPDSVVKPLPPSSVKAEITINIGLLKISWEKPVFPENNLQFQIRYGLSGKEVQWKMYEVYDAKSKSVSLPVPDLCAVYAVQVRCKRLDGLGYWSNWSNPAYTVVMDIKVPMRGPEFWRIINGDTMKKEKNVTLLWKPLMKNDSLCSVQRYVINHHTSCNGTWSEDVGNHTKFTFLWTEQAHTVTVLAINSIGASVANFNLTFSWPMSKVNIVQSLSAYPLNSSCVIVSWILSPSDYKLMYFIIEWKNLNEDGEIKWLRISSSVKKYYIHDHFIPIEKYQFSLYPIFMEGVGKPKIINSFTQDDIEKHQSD
Nature of the assay: FACS, 10 nM Ab, HEK293/hLEPR-GPI, no added Leptin. On the procedure:
For the FACS analysis, HEK293 parental cells and HEK293/hLEPR-GPI cells were dissociated and plated onto 96-well v-bottom plates at 5×10⁵ cells/well in PBS containing 2% FBS (FACS buffer). […] Cells were subsequently fixed using BD CytoFix™ (Becton Dickinson, #554655), filtered, and analyzed on a HyperCyt Flow Cytometer (Beckman Coulter). Unstained and secondary antibody alone controls were also tested for all cell lines. The results were analyzed using ForeCyt (IntelliCyt) and FlowJo version 10 software to determine the geometric means of fluorescence for viable cells. The geometric mean of fluorescence for each sample was then normalized to the geometric mean of unstained cells to obtain relative binding per condition referred to as “binding ratios”, and these binding ratios were recorded for each antibody tested.
On the technique in general: In flow cytometry, cells or beads pass a laser one at a time.

The target in assay [3] is rat LEPR extracellular domain expressed with a C-terminal myc-myc-hexahistidine tag (rLEPR.mmh) (rat, UniProt Q62959 22-839). The experiment in a line: SPR, captured mAb, 25C and 37C. The method, then: (§1) Equilibrium dissociation constants (KD values) for LEPR binding to purified anti-LEPR monoclonal antibodies were determined using a real-time surface plasmon resonance biosensor using a Biacore 4000 instrument. All binding studies were performed in 10 mM HEPES, 150 mM NaCl, 3 mM EDTA, and 0.05% v/v Surfactant Tween-20, pH 7.4 (HBS-ET) running buffer at 25° C. and 37° C. The Biacore sensor surface was first derivatized by amine coupling with a monoclonal mouse anti-human Fc antibody (GE, # BR-1008-39) to capture anti-LEPR monoclonal antibodies. […] Kinetic association (kₐ) and dissociation (kd) rate constants were determined by fitting the real-time binding sensorgrams to a 1:1 binding model with mass transport limitation using Scrubber 2.0c curve-fitting software. Binding dissociation equilibrium constants (KD) and dissociative half-lives (t½) were calculated from the kinetic rate constants as: […]
For orientation: In SPR one partner is held on a chip, and binding of the other changes the refractive index at the surface.

Assay [4] deals with mouse LEPR extracellular domain expressed with a C-terminal myc-myc-hexahistidine tag (mLEPR.mmh) (mouse, UniProt P48356 22-839). The experiment in a line: SPR, captured mAb, 25C and 37C. The method, then:
as §1

rat LEPR extracellular domain expressed with a C-terminal myc-myc-hexahistidine tag (rLEPR.mmh), sequence (Q62959 other isoform, or with tags, fused parts or gaps): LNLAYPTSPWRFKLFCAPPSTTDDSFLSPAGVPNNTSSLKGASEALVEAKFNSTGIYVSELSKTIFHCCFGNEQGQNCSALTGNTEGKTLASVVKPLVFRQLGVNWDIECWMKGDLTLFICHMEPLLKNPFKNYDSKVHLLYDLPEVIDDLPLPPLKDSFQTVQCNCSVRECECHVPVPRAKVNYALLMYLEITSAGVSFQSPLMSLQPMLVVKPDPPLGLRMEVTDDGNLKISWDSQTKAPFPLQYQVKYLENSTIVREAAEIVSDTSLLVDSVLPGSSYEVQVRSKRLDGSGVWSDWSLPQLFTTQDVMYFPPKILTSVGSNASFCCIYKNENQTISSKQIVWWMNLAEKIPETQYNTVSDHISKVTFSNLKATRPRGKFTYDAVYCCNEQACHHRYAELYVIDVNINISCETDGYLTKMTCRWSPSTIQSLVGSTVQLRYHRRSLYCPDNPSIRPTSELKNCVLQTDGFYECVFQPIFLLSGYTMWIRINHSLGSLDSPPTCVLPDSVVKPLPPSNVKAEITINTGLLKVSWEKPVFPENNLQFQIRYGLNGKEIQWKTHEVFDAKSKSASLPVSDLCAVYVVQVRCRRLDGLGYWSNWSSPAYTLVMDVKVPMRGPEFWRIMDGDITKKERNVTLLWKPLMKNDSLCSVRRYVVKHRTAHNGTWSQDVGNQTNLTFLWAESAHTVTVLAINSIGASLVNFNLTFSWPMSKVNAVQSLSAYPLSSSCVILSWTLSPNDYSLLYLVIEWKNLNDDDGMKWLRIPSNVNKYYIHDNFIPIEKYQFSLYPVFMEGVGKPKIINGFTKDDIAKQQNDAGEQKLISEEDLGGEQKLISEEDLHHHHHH
mouse LEPR extracellular domain expressed with a C-terminal myc-myc-hexahistidine tag (mLEPR.mmh), sequence (P48356 other isoform, or with tags, fused parts or gaps): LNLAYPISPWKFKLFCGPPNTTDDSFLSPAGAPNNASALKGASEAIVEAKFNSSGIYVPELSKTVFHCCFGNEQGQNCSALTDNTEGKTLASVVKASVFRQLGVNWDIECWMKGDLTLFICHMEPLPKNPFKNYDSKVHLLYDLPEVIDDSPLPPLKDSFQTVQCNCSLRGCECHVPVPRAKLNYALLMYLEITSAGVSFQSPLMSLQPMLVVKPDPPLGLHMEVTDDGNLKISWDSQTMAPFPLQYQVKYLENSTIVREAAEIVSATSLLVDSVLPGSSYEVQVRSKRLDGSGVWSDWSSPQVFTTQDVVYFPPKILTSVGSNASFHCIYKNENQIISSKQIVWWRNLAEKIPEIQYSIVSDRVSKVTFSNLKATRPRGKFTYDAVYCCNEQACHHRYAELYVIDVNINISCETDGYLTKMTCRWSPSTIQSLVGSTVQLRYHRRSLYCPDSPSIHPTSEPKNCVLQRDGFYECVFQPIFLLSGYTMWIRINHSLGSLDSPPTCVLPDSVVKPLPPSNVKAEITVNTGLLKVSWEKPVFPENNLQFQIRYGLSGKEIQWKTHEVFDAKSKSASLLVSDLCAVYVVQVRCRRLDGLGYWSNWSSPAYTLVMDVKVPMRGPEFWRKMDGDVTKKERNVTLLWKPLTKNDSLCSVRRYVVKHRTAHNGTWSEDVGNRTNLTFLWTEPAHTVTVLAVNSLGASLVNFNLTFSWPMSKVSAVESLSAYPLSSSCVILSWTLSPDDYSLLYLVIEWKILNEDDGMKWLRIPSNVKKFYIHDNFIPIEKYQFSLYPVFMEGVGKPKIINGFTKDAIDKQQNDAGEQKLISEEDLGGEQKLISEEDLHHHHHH

B1: H4H18449P2 (antibody, human IgG4, V domains shown)
VH: EVQLVESGGGLVQPGGSLRLSCVASGFTFNKYDMHWVRQTTGKGLEWVSGIDTDGDTYYPGSVKGRFTISRENAENSLYLQMNGLRVGDTAVYYCARWPWSGFYGAFDIWGQGTMVTVSS
VL: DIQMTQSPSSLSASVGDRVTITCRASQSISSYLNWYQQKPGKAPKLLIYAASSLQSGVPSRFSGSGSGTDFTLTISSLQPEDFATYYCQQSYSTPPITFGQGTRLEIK
notes: human IgG4 Fc
As for B1, in assay [1], the “% activation; IMR-32/LEPR with 200 pM human Leptin” value was 66%, the “% activation; IMR-32/LEPR without human Leptin” value worked out at 13%, the “EC50 (M); IMR-32/LEPR with 200 pM human Leptin” value (from here on “EC50 … with 200 pM human Leptin”) was found to be 5.23e-11 M and the “EC50 (M); IMR-32/LEPR without human Leptin (STAT3-Luc reporter)” value worked out at 2.12e-10 M. In assay [2], the “Binding Ratio (normalized to unstained)” value came to 3370 fold. The binding result in assay [3] is reported as “no binding (tested: 100 nM)”. In assay [4], the binding result is “no binding (tested: 100 nM)”.

B2: H4H16650P2 (antibody, V domains shown)
VH: QVQLVESGGGVVQPGKSLRLSCVASGFTFSSDAMYWVRQAPGKGLEWVAVIYYDGNYQYYEDSVKGRFTISRDNSQNTLDLQMNSLRVDDTAVYFCARLNWDYWYLDLWGRGTLVTVSS
VL: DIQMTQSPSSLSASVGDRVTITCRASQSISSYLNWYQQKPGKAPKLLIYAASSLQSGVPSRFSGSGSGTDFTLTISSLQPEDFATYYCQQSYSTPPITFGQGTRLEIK
For the molecule B2, in assay [1], the “% activation; IMR-32/LEPR with 200 pM human Leptin” value came out at 88%, the “% activation; IMR-32/LEPR without human Leptin” value is 68%, the “EC50 … with 200 pM human Leptin” value came to 5.19e-11 M and the “EC50 (M); IMR-32/LEPR without human Leptin (STAT3-Luc reporter)” value was 6.19e-11 M. Moreover, in assay [2], the “Binding Ratio (normalized to unstained)” value was determined as 2420 fold. For the same molecule, the binding result in assay [3] was “no binding (tested: 100 nM)”. Besides, the binding result in assay [4] is recorded as “no binding (tested: 100 nM)”.

B3: H4H18438P2 (antibody, V domains shown)
VH: QVQLVESGGGVVQPGRSLRLSCAASGFSFNTYGMHWVRQAPGKGLEWVTIIWYDGSIKYYADSVKGRFTISRDNSKNTLYLQMNSLRAEDTAVYYCARGGYSGYLYFDYWGQGTLVTVSS
VL: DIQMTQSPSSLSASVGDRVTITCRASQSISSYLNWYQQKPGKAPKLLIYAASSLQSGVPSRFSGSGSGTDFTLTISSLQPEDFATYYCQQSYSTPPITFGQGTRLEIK
Regarding B3, in assay [1], the “% activation; IMR-32/LEPR with 200 pM human Leptin” value was found to be 76%, the “% activation; IMR-32/LEPR without human Leptin” value amounted to 5%, the “EC50 … with 200 pM human Leptin” value was 2.02e-11 M and the “EC50 (M); IMR-32/LEPR without human Leptin (STAT3-Luc reporter)” value amounted to 1.49e-09 M. Besides, in assay [2], the “Binding Ratio (normalized to unstained)” value was 1490 fold. Besides, the binding result in assay [3] is listed as “no binding (tested: 100 nM)”. Besides, the binding result in assay [4] was “no binding (tested: 100 nM)”.

B4: H4H17321P2 (antibody, V domains shown)
VH: QVQLVESGGGVVQPGRSLRLSCEASGFSSSDNAMYWVRQAPGKGLEWVSVIYHDGSYKYYEDSVKGRFTIARDNSKNTLYLQMNSLRAEDTAVYYCARYNWNHWYFDVWGRGTLVTVSS
VL: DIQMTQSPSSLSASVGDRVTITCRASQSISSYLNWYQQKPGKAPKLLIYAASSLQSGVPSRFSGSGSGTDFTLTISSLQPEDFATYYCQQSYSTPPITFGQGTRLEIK
On to B4, for which, in assay [1], the “% activation; IMR-32/LEPR with 200 pM human Leptin” value is 76%, the “% activation; IMR-32/LEPR without human Leptin” value turned out to be 66%, the “EC50 … with 200 pM human Leptin” value was 2.57e-10 M and the “EC50 (M); IMR-32/LEPR without human Leptin (STAT3-Luc reporter)” value was 2.07e-10 M. In assay [3], the binding result was “no binding (tested: 100 nM)”. In addition, the binding result in assay [4] is on record as “no binding (tested: 100 nM)”.

B5: H4H17319P2 (antibody, V domains shown)
VH: QVQLVESGGSVVQPGRSLRLSCAASGFTFSTYAMYWVRQTPGKGLEWVAVLYSDGSNKYYIDSVKGRFTISRDTSTNTLYLQMSSLRADDSALYYCARLNWDYWYFDLWGRGTLVTVSS
VL: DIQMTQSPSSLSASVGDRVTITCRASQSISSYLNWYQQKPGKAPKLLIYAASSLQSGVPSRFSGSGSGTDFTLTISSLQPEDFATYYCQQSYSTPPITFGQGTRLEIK
notes: also called REGN4461
With B5, in assay [1], the “% activation; IMR-32/LEPR with 200 pM human Leptin” value came to 76%, the “% activation; IMR-32/LEPR without human Leptin” value amounted to 68%, the “EC50 … with 200 pM human Leptin” value was 1.91e-10 M and the “EC50 (M); IMR-32/LEPR without human Leptin (STAT3-Luc reporter)” value worked out at 1.87e-10 M. Besides, in assay [3], the binding result is “no binding (tested: 100 nM)”. Besides, in assay [4], the binding result is recorded as “no binding (tested: 100 nM)”.

B6: H4H18417P2 (antibody, V domains shown)
VH: QVQLVESGGGVVQPGRSLRLSCAASGFTFSTYGMHWVRQAPGKGLEWVSVISYDESNKYYADSVKGRFTISRDNSKNALYLQMNSLRNEDTAVYYCARDRPFGLVTGWFDPWGQGTLVTVSS
VL: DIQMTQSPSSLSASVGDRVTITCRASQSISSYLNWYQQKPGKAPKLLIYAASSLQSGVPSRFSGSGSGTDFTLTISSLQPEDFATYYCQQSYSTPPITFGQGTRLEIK
Consider B6, for which, in assay [1], the “% activation; IMR-32/LEPR with 200 pM human Leptin” value came out at 87%, the “% activation; IMR-32/LEPR without human Leptin” value worked out at 5%, the “EC50 … with 200 pM human Leptin” value was determined as 5.23e-10 M and the “EC50 (M); IMR-32/LEPR without human Leptin (STAT3-Luc reporter)” value came out at 1.53e-10 M. In addition, the “Binding Ratio (normalized to unstained)” value in assay [2] turned out to be 1840 fold. Further, the binding result in assay [3] is “no binding (tested: 100 nM)”. For the same molecule, the binding result in assay [4] was “no binding (tested: 100 nM)”.

B7: H4H18445P2 (antibody, human IgG4, V domains shown)
VH: QVQLQESGPGLVKPSQTLSLTCTVSGGSISSGGDYWSWIRQLPGKGLEWIGYIYYSGSAYYNPSLKSRGTISIDTSKNQFSLKLTSVTAADTAVYFCVKLRFLEWFLGGWFGPWGQGTLVTVSS
VL: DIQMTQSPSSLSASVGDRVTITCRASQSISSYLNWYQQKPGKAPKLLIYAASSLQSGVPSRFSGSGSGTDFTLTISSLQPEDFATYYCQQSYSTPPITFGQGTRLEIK
notes: human IgG4 Fc
Regarding B7, in assay [1], the “% activation; IMR-32/LEPR with 200 pM human Leptin” value turned out to be 97%, the “% activation; IMR-32/LEPR without human Leptin” value was found to be 5%, the “EC50 … with 200 pM human Leptin” value worked out at 4.1e-10 M and the “EC50 (M); IMR-32/LEPR without human Leptin (STAT3-Luc reporter)” value worked out at 1.19e-08 M. Moreover, the “Binding Ratio (normalized to unstained)” value in assay [2] was determined as 2020 fold. The binding result in assay [3] was “no binding (tested: 100 nM)”. The binding result in assay [4] is reported as “no binding (tested: 100 nM)”.

B8: H4H18446P2 (antibody, human IgG4, V domains shown)
VH: EVQLVESGGGLVQPGGSLRLSCAASGFTFSNYGMTWVRQAPGKGLEWVSAITGGGGSTYYSNSVKGRFTISRDNSKNTVYLRMNSVRAEDTAVYYCAKYKWNFVDDWGQGTTVTVSS
VL: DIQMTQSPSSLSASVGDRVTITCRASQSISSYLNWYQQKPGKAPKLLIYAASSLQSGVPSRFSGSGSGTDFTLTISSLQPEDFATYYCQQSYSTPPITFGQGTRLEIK
notes: human IgG4 Fc
Take B8: in assay [1], the “% activation; IMR-32/LEPR with 200 pM human Leptin” value was determined as 68%, the “% activation; IMR-32/LEPR without human Leptin” value was 6%, the “EC50 … with 200 pM human Leptin” value was 3.42e-11 M and the “EC50 (M); IMR-32/LEPR without human Leptin (STAT3-Luc reporter)” value was 3.73e-10 M. Besides, in assay [3], the binding result was “no binding (tested: 100 nM)”. Besides, the binding result in assay [4] is recorded as “no binding (tested: 100 nM)”.

The values are drawn from patent US20190309079A1 (Regeneron, published 2019).
